Entries after “also recorded” stand apart in the source; their conditions may differ.
T1: epithelial CAR on T84 monolayers (Homo sapiens, UniProt P78310)
T1 construct: endogenous in cells; host or cells: T84
T1 sequence (P78310 20-365): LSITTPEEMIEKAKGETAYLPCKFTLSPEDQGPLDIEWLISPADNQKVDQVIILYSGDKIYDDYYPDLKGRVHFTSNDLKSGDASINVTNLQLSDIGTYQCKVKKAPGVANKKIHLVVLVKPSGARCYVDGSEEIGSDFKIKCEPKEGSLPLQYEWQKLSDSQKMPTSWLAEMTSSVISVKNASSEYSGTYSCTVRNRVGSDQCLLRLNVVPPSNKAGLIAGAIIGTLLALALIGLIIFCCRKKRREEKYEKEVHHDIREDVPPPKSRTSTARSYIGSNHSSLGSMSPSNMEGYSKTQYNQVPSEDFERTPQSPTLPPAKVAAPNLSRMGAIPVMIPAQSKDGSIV

T2: CAR on CHO-CAR cells (Homo sapiens, UniProt P78310)
T2 construct: The full length gene of CAR was cloned into pcDNA3.1-Hygromycin; expressed in transfected cells
T2 sequence (P78310 20-365): T1 sequence (P78310 20-365)

T3: JAML D1 domain (Homo sapiens, UniProt Q86YT9)
T3 construct: made in house; host or cells: HEK293T
T3 sequence (Q86YT9 20-140): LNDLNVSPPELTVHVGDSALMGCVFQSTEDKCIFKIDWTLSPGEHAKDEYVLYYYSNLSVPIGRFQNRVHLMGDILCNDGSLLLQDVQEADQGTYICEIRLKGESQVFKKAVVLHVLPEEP

B1: sJAML: recombinant soluble fragment of JAML.D1D2 tagged with 10 His residues at the C-terminus (protein)
chain: LNDLNVSPPELTVHVGDSALMGCVFQSTEDKCIFKIDWTLSPGEHAKDEYVLYYYSNLSVPIGRFQNRVHLMGDILCNDGSLLLQDVQEADQGTYICEIRLKGESQVFKKAVVLHVLPEEPKELMVHVGGLIQMGCVFQSTEVKHVTKVEWIFSGRRAKEEIVFRYYHKLRMSVEYSQSWGHFQNRVNLVGDIFRNDGSIMLQGVRESDGGNYTCSIHLGNLVFKKTIVLHVSPEEPRTL
B2: DW100: monoclonal anti-human JAML antibody (IgG1,κ), hybridoma ATCC PTA-13051; VH SEQ ID NO:19, VL SEQ ID NO:22 (antibody, V domains shown)
VH: DVQLVESGAELVRPGASKLSCKALAYTFTDYEMHWVKQTPVHGLEWIGIIHPGSGGTVYNQKFKGKATLTADKSSSTAYMELSSLTSEDSTVYYCTRRRYYGSSYNWYFDVWGAGN
VL: VLTQSPASLAASVGETVTITCRASENIYYSLAWYQQKQGKSPQLLIYNANSLEDGVPSRFSGSGSGTQYSLKINSMQPEDTATYFCEQTYDVPLTFGAGTKLEL

Key:
[1] = tested on: T84 monolayers; experiment: Epithelial barrier recovery after calcium switch (TER, dextran flux); type: cell-based, human; conditions: for epithelial barrier recovery (TER) after calcium depletion: 30 μg/ml, 20 m/ml, up to 24 hours, FIG. 9A
Description: T84 monolayers grown on permeable supports were subjected to transient calcium depletion by preincubation in Ca2+ free buffer (PBS) for 40 min to disassemble tight junctions, followed by switching back to calcium containing medium without (No Tx), or with sJAML or a control recombinant IgSF protein sSIRPa (30 μg/ml). Barrier recovery was measured as transepithelial resistance (TER) at time points as indicated.
FIG. 9B. Flux of fluorescently labeled dextran (3 k) was measured at the 24 h time point for conditions as described in panel A. N=4.
Since CAR plays a role in epithelial barrier, the effect of soluble JAML on epithelial barrier recovery was tested. Transepithelial resistance (TER) recovery experiments and dextran flux assay were performed with T84 cells grown in transwells (FIG. 9) as well as with Caco2 cells. […] As a negative control, a related soluble IgSF molecule SIRPalpha had no effect.

[2] = target: T1, epithelial CAR on T84 monolayers; experiment: Soluble JAML binding to epithelial CAR, immunofluorescence; type: cell-based; conditions: sJAML 20 μg/ml, 1 h at 37° C. after 20 min Ca2+ free buffer; FIG. 7D
Description: FIG. 7D. T84 monolayers were subjected to transient calcium depletion by preincubation in Ca^2+ free buffer (PBS) for 20 min to increase access to tight junctions, were incubated with sJAML (20 μg/ml) for 1 h at 37° C. […] The scale bar is 20 μm.
(§1) As it has been established that epithelial CAR is the ligand for JAML on PMN. Whether shed JAML, as well as the recombinant protein could bind to CAR was investigated. To do this, CHO cells stably expressing CAR protein (CHO-CAR) were incubated with either supernatants from PMA activated differentiated PLB-985 (that release high levels of soluble JAML upon activation, (FIG. 2)), or recombinant soluble JAML and stained with DW216 to detect bound JAML. […] The same observation was verified by IF (FIG. 7B). […] The calcium depletion disrupts intercellular junctions of the epithelium and allows for better penetration of soluble JAML.

[3] = target: T2, CAR on CHO-CAR cells; experiment: Soluble JAML binding to CHO-CAR by flow cytometry; type: cell-based; conditions: sJAML 20 μg/ml, 1 h at 4° C., DW216 detection, FIG. 7A
Description: CHO-K1 cells stably expressing CAR (CHO-CAR) were incubated with supernatants from PMA activated PLB cells (˜5˜10^7 cell activated in 1 ml, left panel) or recombinant soluble JAML-His (sJAML, 20 μg/ml, right panel) for 1 h at 4° C. JAML binding to CAR on the cell surface was measured by flow cytometry and compared to CHO-CAR cells alone (NoTx). The flow micrograph is representative of 4 independent experiments.
as §1

[4] = target: T3, JAML D1 domain; experiment: Domain specificity ELISA on sJAML-His, sJAML.D1-Fc, sJAML.D2-Fc; type: binding; conditions: sJAML.D2-Fc coated, FIG. 1B
Description: FIG. 1B. sJAML-His and purified soluble, mutant fragments of JAML, tagged with rabbit Fc (membrane distal Ig loop: sJAML.D1-Fc and membrane proximal Ig loop: sJAML.D2-Fc) were coated on Immulon II microtiter wells overnight at 4° C. After blocking and washing, antibodies were added to wells for 1 hour and the assay developed with HRP conjugated goat anti mouse Ig (H+L). After addition of ABTS, microtiter wells were analyzed in a microtiter plate reader at 405 nm wavelength. M3 is polyclonal mouse serum collected from the sJAML-His immunized mouse before the fusion. 9E10 anti Myc was used as control.
To determine the domain specificity of monoclonal antibodies, soluble full length JAML.D1D2-His (sJAML-His), truncated extracellular fragments: soluble membrane distal fragment JAML.D1-Fc (sJAML.D1-Fc), and soluble membrane proximal fragment JAML.D2-Fc (sJAML.D2-Fc), both tagged with rabbit Fc, were generated and tested for antibody binding. […] Polyclonal serum (M3) was collected from the immunized mouse prior the fusion and was used as the positive control in the binding assay.

[5] = tested on: PMN transepithelial migration; experiment: PMN transepithelial migration; type: cell-based, human

Row | JAML labeling versus CAR staining on T84 monolayers [2] | Molecule | epithelial barrier recovery (TER) after calcium depletion ([1]; listed as Soluble JAML) | epithelial barrier recovery (TER) after calcium depletion ([1]; listed as soluble JAML) | flux of fluorescently labeled dextran (3 k) ([1]; 24 h time point, FIG. 9B) | JAML binding to CHO-CAR [3] | JAML domain bound [4] | inhibitory effect on PMN transepithelial migration [5] [%]
1 | highly colocalizes with staining of CAR | B1 | decreased epithelial barrier recovery; also recorded: delayed both epithelial barrier recovery and wound restitution | significantly impaired the recovery of epithelial barrier | increased dextran flux | JAML binding to CHO-CAR was detected in both cases | – | –
2 | – | B2 | – | – | – | – | binds the D1 domain of JAML; also recorded: specifically binds JAML D1 domain | ~15

Reference: patent publication US10465005B2, “JAML specific binding agents, antibodies, and uses related thereto” (Emory University, priority 2011, dated 2019)
